Source: US20150139996A1
Read-outs that look alike come from different tables or passages of the source.

Columns and labels:
[1] = molecular target: IgG1 heavy chain with CH3 construct 69 (L351D, L368E) (human) [IgG part: P01857]; experiment: native MS (peak height); Tr. 1, 2:1:1; AC = 1337-KK with 1025-DE
[2] = molecular target: IgG1 heavy chain with CH3 construct 69 (L351D, L368E) (human) [IgG part: P01857]; experiment: native MS (peak height); Tr. 8, 1:1:2; CC = 1025-KK with 1025-DE
[3] = molecular target: IgG1 heavy chain with CH3 construct 69 (L351D, L368E) (human) [IgG part: P01857]; experiment: native MS (peak height); Tr. 4, 1:1:2; AC = 1337-KK with 1025-DE
[4] = molecular target: IgG1 heavy chain with CH3 construct 69 (L351D, L368E) (human) [IgG part: P01857]; experiment: native MS (peak height); Tr. 6, 1:1:2; AB = 1337-KK with 1122-DE
[5] = molecular target: IgG1 heavy chain with CH3 construct 74 (L351D, Y349D) (human) [IgG part: P01857]; experiment: native MS; combination 10 co-expressed (A: VH MF1337, B: VH MF1122)
[6] = molecular target: IgG1 heavy chain with CH3 construct 68 (T366K, L351K) (human) [IgG part: P01857]; experiment: as above
[7] = molecular target: IgG1 heavy chain with CH3 construct 69 (L351D, L368E) (human) [IgG part: P01857]; experiment: native MS (peak height); Tr. 7, 2:1:1; AC = 1337-KK with 1025-DE
[8] = molecular target: IgG1 heavy chain with CH3 construct 69 (L351D, L368E) (human) [IgG part: P01857]; experiment: native MS (peak height); Tr. 9, 1:1; 1337-KK with 1122-DE
[9] = molecular target: IgG1 heavy chain with CH3 construct 71 (L351D, Y349E) (human) [IgG part: P01857]; experiment: native MS; combination 11 co-expressed (A: VH MF1337, B: VH MF1122)
[10] = molecular target: IgG1 heavy chain with CH3 construct 68 (T366K, L351K) (human) [IgG part: P01857]; experiment: as above
[11] = molecular target: IgG1 heavy chain with CH3 construct 69 (L351D, L368E) (human) [IgG part: P01857]; experiment: native MS (peak height); Tr. 10, 1:1; 1337-KK with 1025-DE
[12] = molecular target: IgG1 heavy chain with CH3 construct 68 (T366K, L351K) (human) [IgG part: P01857]; experiment: SDS-PAGE of protein A-purified supernatant; construct expressed alone
[13] = molecular target: IgG1 heavy chain with CH3 construct 68 (T366K, L351K) (human) [IgG part: P01857]; experiment: native MS; combination 12 co-expressed (A: VH MF1337, B: VH MF1122)
[14] = molecular target: IgG1 heavy chain with CH3 construct 69 (L351D, L368E) (human) [IgG part: P01857]; experiment: as above
[15] = molecular target: IgG1 heavy chain with CH3 construct 69 (L351D, L368E) (human) [IgG part: P01857]; experiment: native MS (peak height); Tr. 3, 1:2:1; AB = 1337-KK with 1122-DE
[16] = molecular target: IgG1 heavy chain with CH3 construct 72 (L351D, R355D) (human) [IgG part: P01857]; experiment: native MS; combination 8 co-expressed (A: VH MF1337, B: VH MF1122)
[17] = molecular target: IgG1 heavy chain with CH3 construct 68 (T366K, L351K) (human) [IgG part: P01857]; experiment: as above
[18] = molecular target: IgG1 heavy chain with CH3 construct 68 (T366K, L351K) (human) [IgG part: P01857]; experiment: native MS; combination 7 co-expressed (A: VH MF1337, B: VH MF1122)
[19] = molecular target: IgG1 heavy chain with CH3 construct 63 (L351D) (human) [IgG part: P01857]; experiment: as above
[20] = molecular target: IgG1 heavy chain with CH3 construct 69 (L351D, L368E) (human) [IgG part: P01857]; experiment: native MS (peak height); Tr. 2, 2:1:1; AC = 1025-KK with 1337-DE
[21] = molecular target: IgG1 heavy chain with CH3 construct 69 (L351D, L368E) (human) [IgG part: P01857]; experiment: native MS (peak height); transfection #11 of Table 24; AB = A/68 with B/69
[22] = molecular target: IgG1 heavy chain with CH3 construct 69 (L351D, L368E) (human) [IgG part: P01857]; experiment: native MS (peak height); Tr. 7, 2:1:1; AA = 1337-KK with 1337-DE
[23] = molecular target: IgG1 heavy chain with CH3 construct 69 (L351D, L368E) (human) [IgG part: P01857]; experiment: native MS (peak height); Tr. 11; by a transfection error 1025-DE stood with 1337-KK instead of 1122-KK
[24] = molecular target: IgG1 heavy chain with CH3 construct 69 (L351D, L368E) (human) [IgG part: P01857]; experiment: native MS (peak height); Tr. 2, 2:1:1; AB = 1122-KK with 1337-DE
[25] = molecular target: IgG1 heavy chain with CH3 construct 75 (L351D, Y349D, R355D) (human) [IgG part: P01857]; experiment: native MS; combination 9 co-expressed (A: VH MF1337, B: VH MF1122)
[26] = molecular target: IgG1 heavy chain with CH3 construct 68 (T366K, L351K) (human) [IgG part: P01857]; experiment: as above
[27] = molecular target: IgG1 heavy chain with CH3 construct 69 (L351D, L368E) (human) [IgG part: P01857]; experiment: native MS (peak height); Tr. 8, 1:1:2; AC = 1337-KK with 1025-DE
[28] = molecular target: IgG1 heavy chain with CH3 construct 69 (L351D, L368E) (human) [IgG part: P01857]; experiment: native MS (peak height); Tr. 6, 1:1:2; BB = 1122-KK with 1122-DE
[29] = molecular target: IgG1 heavy chain with CH3 construct 69 (L351D, L368E) (human) [IgG part: P01857]; experiment: native MS (peak height); Tr. 3, 1:2:1; BC = 1025-KK with 1122-DE
[30] = molecular target: IgG1 heavy chain with CH3 construct 69 (L351D, L368E) (human) [IgG part: P01857]; experiment: native MS (peak height); Tr. 5, 2:1:1; AA = 1337-KK with 1337-DE
[31] = molecular target: IgG1 heavy chain with CH3 construct 69 (L351D, L368E) (human) [IgG part: P01857]
[32] = molecular target: IgG1 heavy chain with CH3 construct 69 (L351D, L368E) (human) [IgG part: P01857]; experiment: native MS (peak height); Tr. 1, 2:1:1; AB = 1337-KK with 1122-DE
[33] = molecular target: IgG1 heavy chain with CH3 construct 69 (L351D, L368E) (human) [IgG part: P01857]; experiment: native MS (peak height); Tr. 5, 2:1:1; AB = 1337-KK with 1122-DE
[34] = molecular target: IgG1 heavy chain with CH3 construct 69 (L351D, L368E) (human) [IgG part: P01857]; experiment: native MS (peak height); Tr. 4, 1:1:2; BC = 1122-KK with 1025-DE
[35] = molecular target: IgG1 heavy chain with CH3 construct 69 (L351D, L368E) (human) [IgG part: P01857]; experiment: native MS (peak height); Tr. 2; AA = DE-DE homodimer of 1337-DE
[36] = molecular target: IgG1 heavy chain with CH3 construct 69 (L351D, L368E) (human) [IgG part: P01857]; experiment: SDS-PAGE of protein A-purified supernatant; construct expressed alone
[37] = molecular target: IgG1 heavy chain with CH3 construct 2 (K392D, K409D) (human) [IgG part: P01857]; experiment: native MS (peak height); transfection #9 of Table 24; crossed dimer B/69 with D/2
[38] = molecular target: IgG1 heavy chain with CH3 construct 69 (L351D, L368E) (human) [IgG part: P01857]; experiment: native MS; combination 3 co-expressed (A: VH MF1337, B: VH MF1122)
[39] = molecular target: IgG1 heavy chain with CH3 construct 69 (L351D, L368E) (human) [IgG part: P01857]; experiment: native MS of gel filtrated sample 1516:1337 (MF1516 on DE-side)
[40] = molecular target: IgG1 heavy chain with CH3 construct 69 (L351D, L368E) (human) [IgG part: P01857]; experiment: native MS (peak height); Tr. 4; CC = DE-DE homodimer of 1025-DE
[41] = molecular target: IgG1 heavy chain with CH3 construct 68 (T366K, L351K) (human) [IgG part: P01857]; experiment: batch test before the pK study; 1516:1337 (MF1516 on DE-side, MF1337 on KK-side)

**Q.** Which Observed species (%) [1] does the source give for “IgG1 heavy chain with CH3 construct 68 (T366K, L351K) (from UniProt P01857-1)” here?
**A.** 57%

**Q.** And the Observed species (%) [2]?
**A.** 40%

**Q.** What about the Observed species (%) [3] of the same substance?
**A.** 66%

**Q.** What about the Observed species (%) [4] of the same substance?
**A.** 75%

**Q.** And the % AB found [5]?
**A.** 95%

**Q.** What about the % AA found [6] of the same substance?
**A.** 1%

**Q.** And the Observed species (%) [7]?
**A.** 54%

**Q.** And the Observed species (%) [8]?
**A.** > 98%

**Q.** And the % AB found [9]?
**A.** 95%

**Q.** And the % AA found [10]?
**A.** 1%

**Q.** And the Observed species (%) [11]?
**A.** > 98%

**Q.** What about the % IgG [12] of the same substance?
**A.** 34.7%

**Q.** And the % half molecule [12]?
**A.** 65.3%

**Q.** What about the % AA found [13] of the same substance?
**A.** 0%

**Q.** And the % AB found [14]?
**A.** 92%

**Q.** What about the Observed species (%) [15] of the same substance?
**A.** 54%

**Q.** And the % AB found [16]?
**A.** 79%

**Q.** What about the % AA found [17] of the same substance?
**A.** 0%

**Q.** What about the % AA found [18] of the same substance?
**A.** 0%

**Q.** And the % AB found [19]?
**A.** 77%

**Q.** What about the Observed species (%) [20] of the same substance?
**A.** 54%

**Q.** What about the percent of species in the mixture [21] of the same substance?
**A.** 33%

**Q.** And the Observed species (%) [22]?
**A.** 46%

**Q.** What about the Observed species (%) [23] of the same substance?
**A.** > 98%

**Q.** What about the Observed species (%) [24] of the same substance?
**A.** 40%

**Q.** And the % AB found [25]?
**A.** 93%

**Q.** What about the % AA found [26] of the same substance?
**A.** 1%

**Q.** What about the Observed species (%) [27] of the same substance?
**A.** 60%

**Q.** What about the Observed species (%) [28] of the same substance?
**A.** 25%

**Q.** And the Observed species (%) [29]?
**A.** 46%

**Q.** What about the Observed species (%) [30] of the same substance?
**A.** 57%

**Q.** What about the percent of species in the mixture [31] of the same substance?
**A.** 30%

**Q.** What about the Observed species (%) [32] of the same substance?
**A.** 43%

**Q.** What about the Observed species (%) [33] of the same substance?
**A.** 43%

**Q.** And the Observed species (%) [34]?
**A.** 33%

**Q.** With “IgG1 heavy chain with CH3 construct 69 (L351D, L368E) (from UniProt P01857-1)” as the substance, how does the Observed species (%) [35] read?
**A.** 6%

**Q.** What about the % IgG [36] of the same substance?
**A.** 83.7%

**Q.** What about the % half molecule [36] of the same substance?
**A.** 16.3%

**Q.** And the % BB found [14]?
**A.** 0%

**Q.** And the percent of species in the mixture [37]?
**A.** 3%

**Q.** What about the % BB found [38] of the same substance?
**A.** 0%

**Q.** What about the percent of species in the sample [39] of the same substance?
**A.** 2%

**Q.** What about the Observed species (%) [40] of the same substance?
**A.** 1%

**Q.** And the percent bispecific IgG [41]?
**A.** > 90%
